Measurements published in patent US20100257638.

Test system: IL-1-L0-Fok1 zinc finger nuclease (IL-1-Fok1) (synthetic construct)
Test: cell_activity
Conditions: inter-chromosomal HR with donor pDAB1600 in tobacco NT1-240; NT1-260 0.1; BY2-380 0.2; donor only 0

“ATTATCCGAGTTTAATAGAACTCGGATAAT (double strand) [IL-1-L0-Fok1 recognition site]” gave an activity (events per selection plate) of 1.2.
